System: MS2 coat protein
Assay: apparent KD of MS2 coat protein; higher = weaker reporter binding
Details: Eterna round: R107
Protocol: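 RNA-MaP round R107: designed RNA switches with theophylline, tryptophan, arginine or FMN aptamers are transcribed on-chip within common flanks. They are titrated with SNAP-549-labelled MS2 coat protein in RNA-MaP buffer (100 mM Tris pH 7.5, 80 mM KCl, 4 mM MgCl2), without ligand or with the indicated ligand. Median apparent KD per design.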

[1] = input ligand: theophylline 20 uM
[2] = input ligand: theophylline 2 mM
[3] = input ligand: tryptophan 2.4 mM

Row | Sequence | apparent KD of MS2 coat protein (input ligand: arginine 13.2 mM) [nM] | apparent KD of MS2 coat protein [1] [nM] | apparent KD of MS2 coat protein [2] [nM] | apparent KD of MS2 coat protein (input ligand: none) [nM] | apparent KD of MS2 coat protein [3] [nM]
1 | GGAUUACGAAAGUAGUCCAUCAAGUUCGAGCGAGGACCGGUACGGCCGCCACUCGAACAUGAGGAUCACCCAUGUAGCGAAAGCU [Tryptophan A 21] | 116 | 304 | 371 |  | 
2 | AAACAUGAGGAUCACCCAUGUCCUCGUGAUCGAGGACCGGUACGGCCGCCACUCGGUCCUCGCGAGGUGGAGUCAAAGACUCCAA [Omei Trp A SS A v7] | 73.9 | 215 | 115 | 182 | 69.5
3 | UGUAUGGACUGAAGGAGCGGGUAAAUAACCUGAGGAUCACCCAGGUAAAAGGCGAAAGCCACCCAGGUAGGUCGCAGUCCAUACU | 10.6 | 13.7 | 12.7 |  | 11
4 | AAUCGCCUGGGUCGCAUCCUUGCUCCGGAUACCAGUCAAUAGUUGGACCCUUGGCAGCCGUAGACAUGAGGAUCACCCAUGUAUA [theeternabot_exclusion_MS2_Theo_A_42] | 30.2 | 85.5 |  |  | 55.9
5 | UGUACCUGUAUCUGGUCCAUAGUAUAACCUCGAGGACCGGUACGGCCGCCACUCGUCGGACCACAUGAGGAUCACCCAUGUACCG [theeternabot_exclusion_MS2_Trp_A_23] | 12.9 | 17.8 | 14.1 |  | 
6 | GGACUAACCAGAAGGAGCGACACGCAGAAACUGCAAAAUCCUCCGCACGAGGAUCACCCGUGUCAGGUAGGUCGCUGGUUAGUCG | 38.6 | 63.6 | 60.2 | 54.3 | 49.7
7 | AAUAAUAACAUGGGUGAAGUCGUACCAUAACGAGGACCGGUACGGCCGCCACUCGAACAUGAGGAUCACCCAUGUAGGUACGACA [M'-T'-T-MS2-T'' - Design 9] | 37.6 | 110 | 85.2 | 86.6 | 43.7
8 | UGUAUGGACUGAAGGAGCGGAAAAUAAACCUGAGGAUCACCCGGGUAAUAGGCGAAAGCCAUCCAGGUAGGUCGCAGUCCAUACU | 156 | 233 | 385 |  | 291
9 | UUAUAAGUACCGGUCCUCAGAUCCUCAUGACGAGGACCGGUACGGCCGCCACUCGAAACAUGAGGAUCACCCAUGUAAUAAUAAC [Brourdmod04] | 23.3 | 92.1 | 37.7 |  | 
10 | UUACACAUGAGGAUCACCCAUGUCUGGGAGCGAGGACCGGUACGGCCGCCACUCGAAUUGUCAGGGCUAUGCCGGACGAUGCAUC [theeternabot_sameState_MS2_Trp_A_20] | 20.6 | 23.5 | 25 |  | 
11 | ACCUCAUAGGCGGCCGCCACUGUAAUGACUACGUCAAACAUGAGGAUCACCCAUGUAGUCAAUCACAGGACCGGGUCAUGGGUAG [Tryp B SS s2] | 27.7 | 45.6 | 41.4 |  | 
12 | CGCUACAUAGCGGCCGCCACUGUCAUGGCUACGAUAGGUCACUCGUACAUGAGGAUCACCCAUGUCAGGACCGGGCUAUCCUCGC [theeternabot_exclusion_MS2_Trp_B_20] | 64.9 | 112 | 112 |  | 
13 | UUUGUAAUUGUCUGGUAGAUUUAUUUAUUUCGAGGACCGGUACGGCCGCCACUCGUUAAUUACAUGAGGAUCACCCAUGUUAGCU [JR_ExcTryptoA_Sub008] | 14.1 | 17.1 | 15 |  | 
14 | GCACCAGGUACGGAUACCAGCUGCCCGAGAUACAUGAGGAUCACCCAUGUGACCUGAUUUAGCCCUUGGCAGCUGUACCUGGUGC [SSThB NP+V+V2 #1] | 148 | 189 | 55.9 | 333 | 285
15 | GACAUGAGGAUCACCCAUGUUUUCUAUGAAGGAGCGUCGGAAAUGACAGGUAGGUCGCAUGGUAGGACUUGUAUCUUGUAUGUAG [EAA NP+V+V2 #10] | 13.4 | 16.2 | 14.7 |  | 15.5
16 | ACCUGCGUUUGUUUCUUUCUGACGCAGGUUCGAGGACCGGUACGGCCGCCACUCGGACAUGAGGAUCACCCAUGUUUGACAUGGG [#02 Exclusion Tryptophan A] | 229 | 238 | 281 |  | 
17 | CCUCAUGAACAUGAGGAUCACCCAUGUACACGAGGACCGGUACGGCCGCCACUCGAAUAAGCUAAAUAUAAAUAAUAAUAAUAGC [5' end split MS2] | 18.4 | 18.3 | 16.8 |  | 
